Source: US20200353078A1 (AstraZeneca / MedImmune, published 2020)
Values belong to the binder of their own block, whether it stands above or below them.

B3: Cynomolgus IL-33 Flag®His (ligand)
chain: SITGISPITESLASLSTYNDQSITFALEDESYEIYVEDLKKDKKKDKVLLSYYESQHPSSESGDGVDGKMLMVTLSPTKDFWLQANNKEHSVELHKCEKPLPDQAFFVLHNRSFNCVSFECKTDPGVFIGVKDNHLALIKVDYSENLGSENILFKLSEINPAFLYKVVGAADYKDDDDKAAHHHHHHHHHH
notes: C-terminal FLAG 10xHis tag, E. coli; also called Mature Cynomolugus IL-33; cyno IL-33 FH

Columns and labels:
[1] = biological target: T1, Human IL-33 Flag®His (human); assay: HTRF: IL-33FH binding to biotinylated ST2-Fc, IgG titrated, after 18 h pre-incubation of IgG with IL-33
T1 construct: Mature IL-33 with C-terminal FLAG 10xHis tag, from E. coli; biotinylated via free cysteines where used biotinylated; also called Mature Human IL-33_FH; human IL-33 FH
T1 chain: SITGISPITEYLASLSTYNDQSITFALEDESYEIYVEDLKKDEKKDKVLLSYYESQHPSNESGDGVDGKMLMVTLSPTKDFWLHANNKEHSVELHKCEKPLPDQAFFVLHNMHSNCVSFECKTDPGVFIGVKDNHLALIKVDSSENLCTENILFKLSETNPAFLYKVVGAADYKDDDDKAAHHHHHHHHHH

[2] = biological target: T2, Human IL-33 (Axxora/Adipogen AG-40B-0038) (human, UniProt O95760 112-270, limits assumed); assay: HTRF epitope competition: unlabelled IgG against DyLight labelled IL330101 IgG for biotinylated human IL-33
T2 construct: Bought; also called IL-33 (Adipogen); biotinylated human IL-33
T2 sequence (looked up): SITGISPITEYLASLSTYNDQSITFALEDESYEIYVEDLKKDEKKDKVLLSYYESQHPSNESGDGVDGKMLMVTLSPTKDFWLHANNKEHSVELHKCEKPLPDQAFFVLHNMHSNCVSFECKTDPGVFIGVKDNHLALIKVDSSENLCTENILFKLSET

[3] = biological target: T3, 33_640087-7B IgG1; assay: HTRF: unlabelled test protein competes with biotinylated human IL33-01 for DyLight650 labelled 33_640087-7B IgG
T3 construct: IgG1
Procedure: Human, cyno and mouse IL-33 FLAG® His (described in Example 1 and Table 21), Human IL-1 alpha and IL-1 beta (R&D Systems) (Table 21) or rat IL-33 (GenScript) were tested for inhibition of human IL-33 binding to DyLight650 labelled 33_640087-7B or DyLight650 labelled 33_640237-2B by adding 5 microlitres of each dilution of sample to a 384 well low volume assay plate (Costar, 3673). […] This was followed by the addition of 2.5 microlitres of a solution containing 0.12 nM biotinylated human IL-33-01 combined with 0.75 nM streptavidin cryptate detection (Cisbio International, 610SAKLB). All dilutions were performed in assay buffer containing 0.8 M potassium fluoride (VWR, 26820.236) and 0.1% bovine serum albumin (BSA, PAA, K05-013) in Dulbeccos PBS (Invitrogen, 14190185). Assay plates were incubated for 4 hours at room temperature followed by 18 hours at 4 degrees Celsius and time resolved fluorescence was read at 620 nm and 665 nm emission wavelengths using an EnVision plate reader (Perkin Elmer). Data were analysed by calculating the 665/620 nm ratio followed by the % Delta F values for each sample. The 665/620 nm ratio was used to correct for sample interference using Equation 1. The % Delta F for each sample was then calculated using Equation 2. […] IC₅₀ values were determined using GraphPad Prism software by curve fitting using a four-parameter logistic equation (Equation 4).

[4] = biological target: T4, 33_640237-2B IgG1; assay: HTRF: unlabelled test protein competes with biotinylated human IL33-01 for DyLight650 labelled 33_640237-2B IgG
T4 construct: IgG1
Procedure: Human, cyno and mouse IL-33 FLAG® His (described in Example 1 and Table 21), Human IL-1 alpha and IL-1 beta (R&D Systems) (Table 21) or rat IL-33 (GenScript) were tested for inhibition of human IL-33 binding to DyLight650 labelled 33_640087-7B or DyLight650 labelled 33_640237-2B by adding 5 microlitres of each dilution of sample to a 384 well low volume assay plate (Costar, 3673). […] This was followed by the addition of 2.5 microlitres of a solution containing 0.12 nM biotinylated human IL-33-01 combined with 0.75 nM streptavidin cryptate detection (Cisbio International, 610SAKLB). All dilutions were performed in assay buffer containing 0.8 M potassium fluoride (VWR, 26820.236) and 0.1% bovine serum albumin (BSA, PAA, K05-013) in Dulbeccos PBS (Invitrogen, 14190185). Assay plates were incubated for 4 hours at room temperature followed by 18 hours at 4 degrees Celsius and time resolved fluorescence was read at 620 nm and 665 nm emission wavelengths using an EnVision plate reader (Perkin Elmer). Data were analysed by calculating the 665/620 nm ratio followed by the % Delta F values for each sample. The 665/620 nm ratio was used to correct for sample interference using Equation 1. The % Delta F for each sample was then calculated using Equation 2. The negative control (non-specific binding) was defined by replacing biotinylated human IL-33 combined with streptavidin cryptate detection with streptavidin cryptate detection only. The % Delta F values were subsequently used to calculate % specific binding as described in Equation 3. IC₅₀ values were determined using GraphPad Prism software by curve fitting using a four-parameter logistic equation (Equation 4).

[5] = biological target: T5, Endogenous human IL-33 (human, UniProt O95760 1-270, limits assumed); assay: cell-based or functional assay
T5 sequence (looked up): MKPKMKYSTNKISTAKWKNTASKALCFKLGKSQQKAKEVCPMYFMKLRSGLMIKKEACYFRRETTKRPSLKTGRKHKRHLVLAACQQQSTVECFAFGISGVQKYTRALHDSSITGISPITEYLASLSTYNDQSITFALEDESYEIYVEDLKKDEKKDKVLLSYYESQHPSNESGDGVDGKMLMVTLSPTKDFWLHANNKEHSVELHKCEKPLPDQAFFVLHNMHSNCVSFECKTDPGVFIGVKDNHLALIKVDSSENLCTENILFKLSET

[6] = biological target: T6, Full-length human IL-33 (amino acids 1-270), HEK293-EBNA cell lysate (human, UniProt O95760 1-270); assay: cell-based or functional assay
T6 sequence (looked up): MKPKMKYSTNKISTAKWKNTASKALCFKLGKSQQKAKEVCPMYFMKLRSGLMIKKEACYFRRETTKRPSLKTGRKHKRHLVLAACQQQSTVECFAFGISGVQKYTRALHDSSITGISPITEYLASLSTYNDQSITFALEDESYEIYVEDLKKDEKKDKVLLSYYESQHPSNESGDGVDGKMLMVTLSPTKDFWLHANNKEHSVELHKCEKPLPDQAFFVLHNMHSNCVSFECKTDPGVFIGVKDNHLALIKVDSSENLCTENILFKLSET

[7] = biological target: T7, His10/Avi Human IL33-01 (human); assay: HTRF epitope competition, IgG titrated; competitor DyLight labelled 33_640117 IgG; overnight
T7 construct: Wild type mature IL-33 with N-terminal 10xHis, Avitag and Factor Xa site; biotinylated by BirA on the Avitag where used biotinylated; reduced form unless treated; also called N-terminal His Avi IL-33; His-Avi human IL-33 wild type
T7 chain: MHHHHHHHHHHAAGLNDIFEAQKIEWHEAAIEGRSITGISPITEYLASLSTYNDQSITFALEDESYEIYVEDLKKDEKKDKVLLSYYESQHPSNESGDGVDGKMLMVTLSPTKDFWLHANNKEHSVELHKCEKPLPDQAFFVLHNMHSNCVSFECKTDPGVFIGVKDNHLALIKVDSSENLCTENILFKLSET
Outline: (§1)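 HTRF competition in which titrated IgG blocks binding of DyLight-labelled 33_640117 IgG (2.5 nM stock) to biotinylated IL-33 detected with streptavidin cryptate: human IL-33-01 at 0.12 nM with 0.75 nM cryptate, cyno IL-33 at 0.24 nM with 1.5 nM cryptate (solution concentrations). Fluorescence read after 1 h and overnight.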

[8] = biological target: T7, His10/Avi Human IL33-01; assay: HTRF competition: purified IgG against FLAG-His human ST2 for biotinylated IL33-01, overnight incubation
[9] = biological target: T8, His10/Avi Cyno IL-33 (cynomolgus monkey); assay: HTRF epitope competition, IgG titrated; competitor DyLight labelled 33_640117 IgG; 1 hour
T8 construct: also called Cynomolgus 10His Avitag IL-33; biotinylated His Avi cynomolgus IL-33
T8 chain: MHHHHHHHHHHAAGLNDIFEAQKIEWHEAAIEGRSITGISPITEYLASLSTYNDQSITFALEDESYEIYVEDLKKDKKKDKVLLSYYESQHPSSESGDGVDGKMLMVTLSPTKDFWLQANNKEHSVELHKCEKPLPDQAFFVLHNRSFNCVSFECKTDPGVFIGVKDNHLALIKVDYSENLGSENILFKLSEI
Outline: as §1

[10] = biological target: T7, His10/Avi Human IL33-01; assay: as above
Outline: as §1

[11] = biological target: T7, His10/Avi Human IL33-01; assay: HTRF competition: purified IgG against FLAG-His human ST2 for biotinylated IL33-01, 1 hour incubation
[12] = biological target: T1, Human IL-33 Flag®His; assay: HTRF competition, IgG titrated against biotinylated human ST2-Fc
Outline: (§2)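 Antibody dilution series competed with biotinylated human ST2-Fc (added from a 4 nM mix with streptavidin-XL665) for IL-33 (added from a 1.2 nM mix with anti-FLAG cryptate). Buffer was DPBS with 0.8 M KF and 0.1% BSA. Incubation ran 2 h at RT then 16 h at 4 °C, with TRF read at 620/665 nm.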

[13] = biological target: B3; assay: as above
Outline: as §2

[14] = biological target: T2, Human IL-33 (Axxora/Adipogen …); assay: cell-based or functional assay
[15] = biological target: T1, Human IL-33 Flag®His; assay: cell-based or functional assay
[16] = biological target: T1, Human IL-33 Flag®His; assay: SPR BIAcore 2000, IgG captured on Protein G', IL-33 as analyte, 1:1 Langmuir
Procedure: (§3) The binding affinity of purified IgG samples of exemplary binding members to human and cynomolgus IL-33 was determined by surface plasmon resonance using BIAcore 2000 biosensor (BIAcore AB) essentially as described by Karlsson et al., J Immunol Methods 145(1-2):229-40 (1991). In brief, Protein G′ (Sigma Aldrich, P4689) was covalently coupled to the surface of a CM5 sensor chip using standard amine coupling reagents according to manufacturer's instructions (BIAcore). The protein G′ surface was used to capture purified anti-IL-33 antibodies via the Fc domain to provide a surface density of approximately 290 RU per cycle. Human or cynomolgus IL-33 prepared in HBS-EP buffer (BIAcore AB), at a range of concentrations, between 600 nM and 18.75 nM, were passed over the sensor chip surface. The surface was regenerated using two 10 mM Glycine washes of pH 1.7 and pH 1.5 between each injection of antibody. The resulting sensorgrams were evaluated using BIA evaluation 3.1 software and fitted to a 1:1 Langmuir binding model, to provide relative binding data. The binding results (KD, Ka, and Kd) for antibodies IL330002 and IL330004 binding to human or cynomolgus IL-33 are shown in Table 8.

[17] = biological target: B3; assay: as above
Procedure: as §3

Binder: B3
IC50 (read off the curve) [3]: ~10 nM | IC50 (read off the curve) [4]: ~200 nM

B4: 33_640050 IgG1 (antibody, V domains shown)
VH: EVQLLESGGGLVQPGGSLRLSCAASGFTFSSYAMSWVRQAPGKGLEWVSAISGSGGSTYYADSVKGRFTISRDNSKNTLYLQMNSLRAEDTAVYYCPRHKFMQLWGGGLRYPFGYWGQGTMVTVSS
VL: SYVLTQPPSVSVSPGQTASITCSGERMGDKYAAWYQQKPGQSPVLVIYQDTKRPSGIPERFSGSNSGNTATLTISGTQAMDEADYYCQVWDSSTGVFGGGTKVTVL
notes: IgG1; also called ZZ1F7Q-D10
IC50, Huvec IL-8 release stimulated by human lung lysate [5]: 0.032 nM | IC50, Huvec IL-8 assay vs. full length IL-33 cell lysate [6]: 0.32 nM | IC50 [7]: 1.5 nM | IC50 (read off the curve) [8]: ~0.5 nM | IC50 [9]: 4.1 nM | IC50 [10]: 0.3 nM

Next, values leading:

IC50 (read off the curve) [1]: ~30 nM
B1: H338L293 (SEQ ID NOs 182 and 187) (antibody, V domains shown)
VH: EVQLLESGGGLVQPGGSLRLSCAASGFTFSSYAMSWVRQAPGKGLEWVSAISPREGWQYYADSVKGRFTISRDNSKNTLYLQMNSLRAEDTAVYYCVRVVAGYFDSWGRGTLVTVSS
VL: SYELMQPPSVSVSPGQTARITCSGDALPKQYAHWYQQKPGQAPVLVIYKDTERPSGIPERFSGSSSGTTVTLTISGVQAEDEADYYCMSSDPSGASRVFGGGTKLTVL
notes: IgG; also called H338L293_fgl; H338L293 IgG

IC50 (read off the curve) [2]: ~0.1 nM
B2: IL330259 IgG1 (antibody, V domains shown)
VH: EVQLLESGGGLVQPGGSLRLSCAASGFTFSSYAMSWVRQAPGKGLEWVSASTPWQGSTYYADSVKGRFTISRDNSKNTLYLQMNSLRAEDTAVYYCVRVVAGYFDSWGRGTLVTVSS
VL: SYVLTQPPSVSVSPGQTARITCSGDALPKQYAHWYQQKPGQAPALVIYKDTERPSGIPERFSGSSSGTTVTLTISGVQAEDEADYYCQSADSSGASRVFGGGTKVTVL
notes: IgG1

IC50 (read off the curve) [11]: ~1 nM | IC50 [12]: 9 nM | IC50 [13]: 170 nM | IC50, Huvec p65/RelA NFκB nuclear translocation [14]: 12 nM | IC50, human ST2 transfected HeLa NFkB luciferase reporter assay [15]: 23 nM | Kd [16]: 6 nM | koff [16]: 0.0011 s⁻¹ | kon [16]: 196000 M⁻¹ s⁻¹ | Kd [17]: 365 nM | koff [17]: 0.00458 s⁻¹ | kon [17]: 12500 M⁻¹ s⁻¹
B5: IL330004 IgG1 (antibody, V domains shown)
VH: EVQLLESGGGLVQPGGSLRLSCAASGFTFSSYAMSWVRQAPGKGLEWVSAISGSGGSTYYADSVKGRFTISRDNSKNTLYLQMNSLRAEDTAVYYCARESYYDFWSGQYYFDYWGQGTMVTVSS
VL: SYELTQPPSVSVSPGQTASISCSGDKLGDKFASWYQQKPGQSPVLIIYQDRKRPSGIPERFSGSNSGNTATLTISGTQTTDEADYYCQAWDGSLYVFGTGTKLTVL
notes: Human IgG1, lambda constant
